Changes are numbered by the printed parent chain. Bounds are passed on as bounds.

This is an account of results in patent US20030166872A1 (APPLIED MOLECULAR EVOLUTION, published 2003).

The chains are these.
B1: LM609 grafted antibody variant G102 (Fab, V domains shown)
VH: QVQLVESGGGVVQPGRSLRLSCAASGFTFSSYDMSWVRQAPGKGLEWVAKVSSGGGSTYYLDTVQGRFTISRDNSKNTLYLQMNSLRAEDTAVYYCARHNYGSFAGWGQGTTVTVSS
VL: EIVLTQSPATLSLSPGERATLSCQASQSISNHLHWYQQRPGQAPRLLIRYRSQSISGIPARFSGSGSGTDFTLTISSLEPEDFAVYYCQQSGSWPHTFGGGTKVEIK
notes: Fab
B2: LM609 grafted antibody variant P60 (Fab, V domains shown)
VH: B1 VH with L61P, G106Y
VL: B1 VL
notes: Fab
B3: LM609 grafted antibody variant L96 (Fab, V domains shown)
VH: B1 VH with G106Y
VL: B1 VL with H96L
notes: Fab
B4: LM609 grafted antibody variant K52 (Fab, V domains shown)
VH: B1 VH with S52K, G106Y
VL: B1 VL
notes: Fab
B5: LM609 grafted antibody variant M102 (Fab, V domains shown)
VH: B1 VH with G106M
VL: B1 VL
notes: Fab
B6: LM609 grafted antibody variant L30 (Fab, V domains shown)
VH: B1 VH with S30L, G106Y
VL: B1 VL
notes: Fab
B7: LM609 grafted antibody variant A102 (Fab, V domains shown)
VH: B1 VH with G106A
VL: B1 VL
notes: Fab
B8: LM609 grafted antibody variant E102 (Fab, V domains shown)
VH: B1 VH with G106E
VL: B1 VL
notes: Fab
B9: LM609 grafted antibody variant N92 (Fab, V domains shown)
VH: B1 VH with G106Y
VL: B1 VL with G92N
notes: Fab
B10: LM609 grafted antibody variant F32 (Fab, V domains shown)
VH: B1 VH with G106Y
VL: B1 VL with H32F
notes: Fab
B11: LM609 grafted antibody variant W29 (Fab, V domains shown)
VH: B1 VH with F29W, G106Y
VL: B1 VL
notes: Fab
B12: LM609 grafted antibody variant S51 (Fab, V domains shown)
VH: B1 VH with G106Y
VL: B1 VL with R51S
notes: Fab
B13: LM609 grafted antibody variant Q96 (Fab, V domains shown)
VH: B1 VH with G106Y
VL: B1 VL with H96Q
notes: Fab
B14: LM609 grafted antibody variant T92 (Fab, V domains shown)
VH: B1 VH with G106Y
VL: B1 VL with G92T
notes: Fab
B15: LM609 grafted antibody variant T27 (Fab, V domains shown)
VH: B1 VH with F27T, G106Y
VL: B1 VL
notes: Fab
B16: enhanced LM609 grafted antibody clone 2236-38/6H6LH (Fab, V domains shown)
VH: B1 VH with L61P, N100L, Y101H, G106S
VL: B1 VL with H32F, H96L
B17: LM609 grafted antibody combinatorial clone 6H6 (Fab, V domains shown)
VH: B1 VH with Y101H, G106S
VL: B1 VL with H96L
notes: Fab
B18: LM609 grafted antibody combinatorial clone 2G4 (Fab, V domains shown)
VH: B1 VH with G106S
VL: B1 VL with H96L
notes: Fab
B19: LM609 grafted antibody combinatorial clone 6G1 (Fab, V domains shown)
VH: B1 VH with L61P, G106S
VL: B1 VL with H96L
notes: Fab
B20: LM609 grafted antibody combinatorial clone C119 (Fab, V domains shown)
VH: B1 VH with L61P, G106S
VL: B1 VL with G92N
notes: Fab
B21: LM609 grafted antibody combinatorial clone C176 (Fab, V domains shown)
VH: B1 VH with L61P, G106T
VL: B1 VL with H32F
notes: Fab
B22: LM609 grafted antibody combinatorial clone 7 (Fab, V domains shown)
VH: B1 VH with L61P, Y101H, G106S
VL: B1 VL with H32F
notes: Fab
B23: LM609 grafted antibody combinatorial clone C29 (Fab, V domains shown)
VH: B1 VH with L61P, Y101H, A105Y, G106S
VL: B1 VL with H96L
notes: Fab
B24: LM609 grafted antibody combinatorial clone C37 (Fab, V domains shown)
VH: B1 VH with A105Y, G106E
VL: B1 VL with H96L
notes: Fab
B25: LM609 grafted antibody combinatorial clone 8F9 (Fab, V domains shown)
VH: B1 VH with L61P, Y101H, G106S
VL: B1 VL with H96L
notes: Fab
B26: LM609 grafted antibody combinatorial clone 6D1 (Fab, V domains shown)
VH: B1 VH with L61P, A105Y, G106S
VL: B1 VL with H96L
notes: Fab
B27: LM609 grafted antibody combinatorial clone 56 (Fab, V domains shown)
VH: B1 VH with L61P, G106S
VL: B1 VL with H32F
notes: Fab
B28: LM609 grafted antibody combinatorial clone 17 (Fab, V domains shown)
VH: B1 VH with G106S
VL: B1 VL with H32F
notes: Fab

The target of one assay is T1, integrin αVβ3 (human, UniProt P06756 31-1048; P05106 27-788).
T1 construct: mature; biotinylated in capture lift and capture ELISA; also on M21 melanoma cells in some assays; also called vitronectin receptor; αVβ3 receptor
Put plainly: ELISA titration of Fab on immobilized αVβ3.
Protocol: For ELISA titration of Fab on immobilized αVβ₃ and the related integrins αVβ₅ and αIIbβ₃, Immulon II microtiter plates were coated with 1 μg/ml purified receptor in 20 mM Tris, pH 7.4, 150 mM NaCl, 2 mM CaCl, 1 mM MgCl₂, 1 mM MnCl₂, washed once, and blocked in 3% BSA in 50 mM Tris, pH 7.4, 100 mM NaCl, 2 mM CaCl₂, 1 mM MgCl₂ for 1 h at 25° C. […] Just prior to use, the plates were washed two times and were then incubated 1 h at 25° C. with various dilutions of Fab. […] All dilutions and washes were in 50 mM Tris-HCl, pH 7.4, 100 mM NaCl, 2 mM CaCl₂, and 1 mM MgCl₂.
Regarding B1, the “fold enhanced binding over LM609 grafted antibody” value (from here on “fold enhanced binding”) was above 3 fold.

For the molecule B2, the “fold enhanced binding” value is above 3 fold.

Regarding B3, the “fold enhanced binding” value is above 3 fold.

Take B4: the “fold enhanced binding” value is above 3 fold.

On to B5, for which the “fold enhanced binding” value is above 3 fold.

Consider B6, for which the “fold enhanced binding” value was above 3 fold.

For the molecule B7, the “fold enhanced binding” value was above 3 fold.

B8: the “fold enhanced binding” value was above 3 fold.

B9: the “fold enhanced binding” value was above 3 fold.

In the case of B10, the “fold enhanced binding” value is above 3 fold.

Take B11: the “fold enhanced binding” value is above 3 fold.

Turning to B12, the “fold enhanced binding” value was above 3 fold.

Regarding B13, the “fold enhanced binding” value was above 3 fold.

As to B14, the “fold enhanced binding” value was above 3 fold.

For B15, the “fold enhanced binding” value was above 3 fold.

For another assay, the target named is T1, integrin αVβ3. Put plainly: SPR (BIACORE), as in Example VI.
Protocol: The affinities of select variants were further characterized by utilizing surface plasmon resonance (BIAcore) to measure the association and dissociation rates of purified Fab with immobilized αVβ₃. […] To obtain association rate constants (kₒₙ), the binding rate at five different Fab concentrations, ranging from 5-40 μg/ml in 50 mM Tris-HCl, pH 7.4, 100 mM NaCl, 2 mM CaCl₂, and 1 mM MgCl₂, was determined at a flow rate of 10 μl/min. Dissociation rate constants (koff) were the average of five measurements obtained by analyzing the dissociation phase at an increased flow rate (40 μl/min). Sensorgrams were analyzed with the BIAevaluation 2.1 program (Pharmacia). Residual Fab was removed after each measurement with 10 mM HCl, 2 mM CaCl₂ and 1 mM MgCl₂.
B16: the Kd (in general, the equilibrium constant for the complex coming apart) was 900 pM.

For the molecule B17, the Kd was found to be 620 pM.

For the next assay, the target named is T1, integrin αVβ3. The assay can be described thus: SPR (BIAcore).
With B18, the “fold slower dissociation rate” value is above 10 fold.

B19: the “fold greater association rate” value was in the range of 2 to 4 fold and the “fold slower dissociation rate” value is above 10 fold.

Regarding B20, the “fold slower dissociation rate” value is above 10 fold.

As to B21, the “fold slower dissociation rate” value was above 10 fold.

As to B22, the “fold slower dissociation rate” value is above 10 fold.

Consider B23, for which the “fold greater association rate” value fell in the range of 2 to 4 fold and the “fold slower dissociation rate” value was above 10 fold.

B24: the “fold slower dissociation rate” value is above 10 fold.

Take B25: the “fold slower dissociation rate” value is above 10 fold.

For the molecule B17, the “fold slower dissociation rate” value was above 10 fold.

Take B26: the “fold slower dissociation rate” value is above 10 fold.

On to B27, for which the “fold slower dissociation rate” value is above 10 fold.

For B28, the “fold slower dissociation rate” value was above 10 fold.
